US20130149237A1

Legend:
[1] = target: Recombinant human ApoER2 (R&D Systems #3520-AR) (human) (UniProt Q14114); test: direct ELISA: wells coated with 1 ug/ml recombinant human ApoER2, antibody titrated, HRP anti-mouse IgG detection
[2] = target: Recombinant human ApoER2 (R&D Systems #3520-AR) (human) (UniProt Q14114); test: ELISA on plates coated with 1 µg/ml recombinant human ApoER2; sample: Apical/Luminal medium of the transwell with hCMEC/D3 cells, antibody premixed with a 10-fold excess of soluble recombinant human ApoER2 (low value put down to interference in the ELISA)
[3] = target: Recombinant human ApoER2 (R&D Systems #3520-AR) (human) (UniProt Q14114); test: ELISA on plates coated with 1 µg/ml recombinant human ApoER2; sample: Basolateral/Abluminal medium of the transwell with hCMEC/D3 cells, antibody premixed with a 10-fold excess of soluble recombinant human ApoER2
[4] = target: Recombinant human ApoER2 (R&D Systems #3520-AR) (human) (UniProt Q14114); test: ELISA on plates coated with 1 µg/ml recombinant human ApoER2; sample: Basolateral/Abluminal medium of the transwell with Empty Filter
[5] = target: Recombinant human ApoER2 (R&D Systems #3520-AR) (human) (UniProt Q14114); test: ELISA on plates coated with 1 µg/ml recombinant human ApoER2; sample: Basolateral/Abluminal medium of the transwell with hCMEC/D3 cells
[6] = target: Recombinant human ApoER2 (R&D Systems #3520-AR) (human) (UniProt Q14114); test: ELISA on plates coated with 1 µg/ml recombinant human ApoER2; sample: Apical/Luminal medium of the transwell with Empty Filter
[7] = target: Recombinant human ApoER2 (R&D Systems #3520-AR) (human) (UniProt Q14114); test: ELISA on plates coated with 1 µg/ml recombinant human ApoER2; sample: Apical/Luminal medium of the transwell with hCMEC/D3 cells

UniProt Q14114, sequence (Q14114 other isoform, or with tags, fused parts or gaps limits assumed): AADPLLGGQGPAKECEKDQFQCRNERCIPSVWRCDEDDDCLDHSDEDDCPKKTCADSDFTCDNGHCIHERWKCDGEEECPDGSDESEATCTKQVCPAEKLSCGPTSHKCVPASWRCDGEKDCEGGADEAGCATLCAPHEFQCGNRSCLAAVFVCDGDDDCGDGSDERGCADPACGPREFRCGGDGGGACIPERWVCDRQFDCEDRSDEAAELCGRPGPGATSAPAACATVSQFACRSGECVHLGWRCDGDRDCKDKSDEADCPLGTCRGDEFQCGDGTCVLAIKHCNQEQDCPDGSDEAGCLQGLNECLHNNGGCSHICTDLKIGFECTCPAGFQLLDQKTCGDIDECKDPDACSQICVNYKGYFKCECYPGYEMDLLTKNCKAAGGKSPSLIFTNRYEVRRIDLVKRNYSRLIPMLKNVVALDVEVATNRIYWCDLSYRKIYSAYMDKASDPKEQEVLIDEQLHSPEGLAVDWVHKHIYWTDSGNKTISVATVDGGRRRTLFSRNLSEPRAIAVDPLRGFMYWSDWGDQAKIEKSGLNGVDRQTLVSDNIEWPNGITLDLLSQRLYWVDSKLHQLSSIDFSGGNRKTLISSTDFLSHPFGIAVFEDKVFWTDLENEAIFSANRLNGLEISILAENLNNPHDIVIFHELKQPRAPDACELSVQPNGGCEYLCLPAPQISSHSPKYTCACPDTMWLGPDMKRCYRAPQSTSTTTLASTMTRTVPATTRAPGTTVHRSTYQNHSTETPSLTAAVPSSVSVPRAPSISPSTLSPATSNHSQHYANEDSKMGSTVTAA

IC50 [1]: 0.068 µg/mL
Volume Adjusted OD450nm [2]: 0.537 OD450nm
Volume Adjusted OD450nm [3]: 0.0789 OD450nm
Volume Adjusted OD450nm [4]: 0.362 OD450nm
Volume Adjusted OD450nm [5]: 0.138 OD450nm
Volume Adjusted OD450nm [6]: 2.75 OD450nm
Volume Adjusted OD450nm [7]: 3.57 OD450nm
Substance: mouse monoclonal anti-human ApoER2 antibody (Abcam ab58216)
